Assay: yeast display, Sf9 membrane polyspecificity reagent, FACS + sequencing; frameworks hold sequencing errors
Summary of the method: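 Using colony PCR, genes from sorted yeast display clones were amplified, then sequenced on MiSeq at 2 × 250 and filtered by CDR length. The clones had been stained with 10% biotinylated, detergent-solubilized Sf9 membrane reagent for 1 hour at 4 °C and sorted by FACS into low and high (top ~1%) gates on anti-HA and streptavidin fluorescence. Polyreactivity labels come from the gate of origin.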

| Sequence | polyreactivity (PSR sort gate) |
| --- | --- |
| QVQLVESGGGLVQAGGSLRLSCAASGSTFRFNAMGWYRQAPGKEREFVAAIRFTGGSTYYADSVKGRFTISRDNAKNTVYLQMNSLKPEDSAVYYCNNADEYSTVEYDYWGQGTQVTVSS | low polyreactivity |
| QVQLVESGGGLVQAGGSLRLSCAASGSTFRFNAMGWYRQAPGKEREFVAAISTSGGSTYYADSVKGRFTISRDNAKNTVYLQMNSLKPEDTAVYYCATRRRIRSSFYYDNDYWGQGTQVTVSS | high polyreactivity |
| QVQLVESGGGLVQAGGSLRLSCAASGSTFRFYAMGWYRQAPGKERELVAAISSGGSSTYYADSVKGRFTISRDNAKNTVYLQMNSLKPEDTAVYYCAADSYVVRWRERDYWGQGTQVTVSS | low polyreactivity |
| QVQLVESGGGLVQAGGSLRLSCAASGSTFRFYAMGWYRQAPGKERELVAAITGSGGRTYYADSVKGRFTISRDNAKNTVYLQMNSLKPEDTAVYYCSARAYWLTGLTFSYKYNYWGQGTQVTVSS | high polyreactivity |
| QVQLVESGGGLVQAGGSLRLSCAASGSTFRFYAMGWYRQAPGKERELVAAITWRGGRTYYADSVKGRFTISRDNAKNTVYLQMNRLKPEDTAVYYCAGGRGWQSQIPAKYYYWGQGTQVTVSS | high polyreactivity |
| QVQLVESGGGLVQAGGSLRLSCAASGSTFRGYAMGCYRQAPGKEREFVASISLSGGTDYADSVKGRFTISRDNAKNTVYLQMNSLKPEDTADYYCAAGYPAVSDSIEHNFWGQGTQVTVSS | low polyreactivity |
| QVQLVESGGGLVQAGGSLRLSCAASGSTFRGYAMGWYRQAPGKERELVAAISRSGGSTYYADSVKGRFTSSRDNAKNTVYLQMNSLKPEDTGVYYCAKRTSGYYWQWFDYCGQGTQVTVSS | high polyreactivity |
| QVQLVESGGGLVQAGGSLRLSCAASGSTFRGYAMGWYRQAPGKERELVAAITGSGDRTRYADSVKGRFTISRDNAKNTVYLQMNSLKPEDTAVYYCAKVWPHWAYYSWGQGTQVTVSS | high polyreactivity |
| QVQLVESGGGLVQAGGSLRLSCAASGSTFRGYAMGWYRQEPGKEREFVASISLSGGSTYYADSVKGRFTISRDNAKYTVYLQMNSLKPEDSAVYYCAARARGYGWRGDYWRQGTQVTVSS | low polyreactivity |
| QVQLVESGGGLVQAGGSLRLSCAASGSTFRGYVMGWYRQAPGKERELVAAISRGGGSTYYADSVKGRFTISRDNAKNTVYLQMNSLKPEDTAVYYCATDYSGRQPGKYGYWGQGTQVTVSS | high polyreactivity |
| QVQLVESGGGLVQAGGSLRLSCAASGSTFRGYVMGWYRQAPGKERELVAVISYNGGSTYYADSVKGRFTISRDNAKNTVYLQMNSLKPEDTAVYYCAATYFFLYTSWDEYWGQGTQVTVSS | low polyreactivity |
| QVQLVESGGGLVQAGGSLRLSCAASGSTFRHYAMGWYRQAPGKERELVAAISYSGSRTYYADSVKGRFTISRDNAKNTVYLQMNSLKPEDTAVYYCNVNLQGRYSDKYDYWGQGTQVTVSS | high polyreactivity |
| QVQLVESGGGLVQAGGSLRLSCAASGSTFRINAMGWYRQAPGKERELVAAITRGGSTNYADSVKGRFTISRDNAKNTVYLQMNSLKPEDTAVYYCAAGLYSWSGYASYNSAYGYWGQGTQVTVSS | low polyreactivity |
| QVQLVESGGGLVQAGGSLRLSCAASGSTFRIYAMGWYRQAPGKERELVARISWNGGRTYYADSVKGRFTISRDNAKNTVYLQMNSLKPEDTAVYYCNARSQGWYYFPDNDYWGQGTQVTVSS | high polyreactivity |
| QVQLVESGGGLVQAGGSLRLSCAASGSTFRKYAMGWYRQAPGKEREFVAAITWSTGTTYYADSVKGRFTISRDNAKNTVYLQMNSLKPEDTAVYYCAADSQPPHELYESIEHESWGQGTQVTVSS | low polyreactivity |
| QVQLVESGGGLVQAGGSLRLSCAASGSTFRKYGMGWYRQAPGKERELVARITSSTGTTYYADSVKGRFTISRDNAKNTVYLQMNSLKPEDTAVNYCNARVRYREWGLYYYWGQGTQVTVSS | high polyreactivity |
| QVQLVESGGGLVQAGGSLRLSCAASGSTFRLNARGWYRQAPGKERELVASIRWSVGITYYADSVKGRFTISRDNAKNTVYLQMNSLKPEDTAVYYCATRDTTWRYYYWGQGTQVTVSS | high polyreactivity |
| QVQLVESGGGLVQAGGSLRLSCAASGSTFRLYAMGWYRQAPGKERELVAAISSGGTTKYADSVKGRFTISRDNAKNTVYLQMNSLKPEDTAVYYCNRRARSYADDYWGQGTQVTVSS | high polyreactivity |
| QVQLVESGGGLVQAGGSLRLSCAASGSTFRLYAMGWYRQAPGKERELVASITTGGSTYYADSVKGRFTISRDNAKNTVYLQMNSLKPEDTAVYYCAAEEYWEMDYWGQGTQVTVSS | low polyreactivity |
| QVQLVESGGGLVQAGGSLRLSCAASGSTFRNYAMGWYRQAPGKERELVAAITKRGGTTYYADSVKGRFTISRDNAKNTVYLQMNSLKPEDTAVYYCAARVKGQWNTYDYWGQVTQVTVSS | high polyreactivity |
| QVQLVESGGGLVQAGGSLRLSCAASGSTFRPNAMGWYRQAPGKERELVAAITSGGSTYYADSVKGRFTISRDNAKNTVYLQMNSLKPEDTAVYYCNKDKFWSYPVQVNLDYWGQGTQVTVSS | low polyreactivity |
| QVQLVESGGGLVQAGGSLRLSCAASGSTFRPYAMGWDRQAPGKERELVAAITSTGGSTYYADSVKGRFTISRDNAKNTVYLQMNSLKPEDTAVYYCAAPLVRYAGPYDYWGQGTQVTVSS | low polyreactivity |

| Sequence | polyreactivity (PSR sort gate) |
| --- | --- |
| QVQLVESGGGLVQAGGSLRLSCAASGSTFRPYVMGWSRQAPGKERELVAAISWRGGTTYYADSVKGRFTISRDNAKNTVYLQMNSQKPEDPAVYYCAARGDQGVPVARRYDYWGQGTQVTVSS | high polyreactivity |
| QVQLVESGGGLVQAGGSLRLSCAASGSTFRPYVMGWYRQAPGKERELVAAISWRGGTTYYADSVKGRFTISRDNAKNTVYLQMNSLKPEDTAVYYCAARGDQGVPVARRYDYWGQGTQVTVSS | high polyreactivity |
| QVQLVESGGGLVQAGGSLRLSCAASGSTFRQNAMGWYRQAPRKERELVATIRTSGGTTYYADSVKGRFTISRDTAKNTVYLQMNSLKPVDTAVYYCAAVSYLFLYQGYPIAYPMYYWGQGTQVTVSS | low polyreactivity |
| QVQLVESGGGLVQAGGSLRLSCAASGSTFRQYAMGWYRQAPGKERELVAAISSSGSTTYYADSVKGRFTISRDNAKNTVYLQMNSLKPEDTAVYYCAAEYTFHYDYWGQGTQVTVSS | low polyreactivity |
| QVQLVESGGGLVQAGGSLRLSCAASGSTFRQYAMGWYRQAPGKERELVAGISYRGGRTYYADSVKGRFTISRDNAKNTVYLHMNSLKPEDTAVYYCNALRHYRDISVDGDDYWGQGTQVTVSS | high polyreactivity |
| QVQLVESGGGLVQAGGSLRLSCAASGSTFRRNAMGWYRQAPGKERELVAAIRYSGSSTYYADSVKGRFTISRGNAKNTVYLQMNSLKPEDTAVYYCATVRNNRYKYDYWGQGTQVTVSS | high polyreactivity |
| QVQLVESGGGLVQAGGSLRLSCAASGSTFRRNAMGWYRQAPGKERELVAAISRSGDSTYYADSVKGRFTISRDYAKNTVYLQMNSLKPEDNAVYYCIAHQSRQVGYWGQGTQVTVSS | high polyreactivity |
| QVQLVESGGGLVQAGGSLRLSCAASGSTFRRNAMGWYRQAPGKERELVAAISSSGGSTYYADSVKGRFTISRDNAKNTVFLQMNSLKPEDTAVYYCAAGYPTLRGYYYWGQGTQVTVSS | low polyreactivity |
| QVQLVESGGGLVQAGGSLRLSCAASGSTFRRNAMGWYRQPPGKERELVAAISGSGSTYYADSVKGRFTISRDHAKNTVYLQLNSLKPEDTAVYYCAKDVTDPTSRSDRSGDDYWGQGTQVTVSS | low polyreactivity |
| QVQLVESGGGLVQAGGSLRLSCAASGSTFRRNAMGWYRQSPGKERELVAAISWRGGSTYYADSVKGRFTISRDYAKNTVYLQMNSLKPEDTAVYYCNTYHPYWGSGFDYWGQGTQVTVSS | low polyreactivity |
| QVQLVESGGGLVQAGGSLRLSCAASGSTFRRNTMGWYTQAPGKERELVAGISSSGGSTYYADSVKGRFTISRDNAKNTVYLQMNSLNPEDTAVYYCDARFYVSYVGYNYWGHGTQVTVSS | high polyreactivity |
| QVQLVESGGGLVQAGGSLRLSCAASGSTFRRYAMGWYRQAPGKEREFVAGITFSGVSTYYADSVKGRFTISRDNAKNTVYLQMNSLKPEDTAVYYCNRRPKYVDNDYWGQGTQVTVSS | high polyreactivity |
| QVQLVESGGGLVQAGGSLRLSCAASGSTFRRYAMGWYRQAPGKERELVAAITGSGGRTYYADSVKGRFTISRDNAKNTVYLQMNSLKPEDTAVYYCAKDSYTRPRGYDYWGQGTQVTVSS | high polyreactivity |
| QVQLVESGGGLVQAGGSLRLSCAASGSTFRRYAMGWYRQAPGKERELVATISSGGRTNYADSVKGRFTISRDNAKNTVYLQMNSLKPEDTAVYYCAARPYYYERSAGYYWGQGTQVTVSS | high polyreactivity |
| QVQLVESGGGLVQAGGSLRLSCAASGSTFRSNAMGWYRQAPGKERELVAAISSRVGTTYYADSVKGRFTISRDNAKNTVYLQMNSLKPEDTAVYYCAAQGWRYYRTVVPMDYWGQGTQVTVSS | low polyreactivity |
| QVQLVESGGGLVQAGGSLRLSCAASGSTFRSNAMGWYRQAPGKERELVASINWSGDSTYYADSVKGRFTISRDNAKNTVYLQMNSLKPEDTAVYYCNAVVDTTEYPYEYDYWGQGTQVTVSS | low polyreactivity |
| QVQLVESGGGLVQAGGSLRLSCAASGSTFRSNVMGWYRQAPGKERELVAAITSSGGSTYYADSVKGRFTISRDNAKNTVYLQMNSLKPEDTAVYYCAVDYYYGFDWGQGTQVTVSS | low polyreactivity |
| QVQLVESGGGLVQAGGSLRLSCAASGSTFRSYAMGWYRQAPGKERELVAAISVSGGSTYYADSVKGRFTISRDNAKNTVYLQMNSLKPEDTAVYYCAASYVPSYAPGRYYYWGQGTQVTVSS | high polyreactivity |
| QVQLVESGGGLVQAGGSLRLSCAASGSTFRTNAMGWYRQAPGKERELVARIRYSVGSTYYADSVKGRFTISRDNAKNTVYLQMNSLKPEDTAVYYCAAENQRVGTFREHDSWGQGTQVTVSS | low polyreactivity |
| QVQLVESGGGLVQAGGSLRLSCAASGSTFRTNVMGWYRQAPGKERELVAAITKRGSITYYADSVKGRFTISRDNAKNTVYFQMNSLKPEDTAVYYCAARKVAVGGYGYWGQGTQVTVSS | high polyreactivity |
| QVQLVESGGGLVQAGGSLRLSCAASGSTFRTYAMGWYRQAPGKERELVADITWRGGSTYYADSVKGRFTISRDNAKNTVYLQMNSLKPEDTAGYYCATDRGPEVVLYDYWGQGTQVTVSS | low polyreactivity |

Reference: the nanobody polyreactivity screen of Harvey et al. (2022)
